{"source": "paper PMC5905600", "about": "“Structural and Immunodiagnostic Characterization of Synthetic Antigen B Subunits From Echinococcus granulosus and Their Evaluation as Target Antigens for Cyst Viability Assessment” (Clinical Infectious Diseases: An Official Publication of …, 2017)", "molecules": {"B1": {"name": "Antigen B subunit 3 (AgB3), synthetic (natural protein)", "chain": "DDDDEVTKTKKGVMKAISEIKHFFQSDPLGKKLVEVMKDVASVCEMVRKKARMALKEYVRKLVKEDE"}, "B2": {"name": "Antigen B subunit 4 (AgB4), synthetic (natural protein)", "chain": "KAEPERCKCLIMRKLGEIRDFFRSDPLGQKLAALGRDLTAICQKLQLKVHEVLKKYVKDLLEEEDEDDLK"}}, "key": {"[1]": {"biological_target": "Antigen B subunit 1 (AgB1), synthetic (Echinococcus granulosus)", "assay": "cross-linking; each single subunit with a 100-fold molar excess of EDC; SDS-PAGE in reducing and nonreducing conditions; bands digested in situ, LC-MS/MS, cross-linked peptides identified with StavroX"}, "[2]": {"biological_target": "Antigen B subunit 1 (AgB1), synthetic (Echinococcus granulosus)", "assay": "cross-linking; subunits with a 10-fold or a 100-fold excess of EDC; SDS-PAGE under reducing conditions; western immunoblotting with WSH serum"}, "[3]": {"biological_target": "Antigen B subunit 2 (AgB2), synthetic (Echinococcus granulosus)", "assay": "SEC; single synthetic subunits; 50 mM sodium phosphate, 150 mM NaCl, pH 7.4; AKTA Explorer 10; size by calibration with standard proteins (apparent molecular weight)"}, "[4]": {"biological_target": "the molecule itself", "assay": "SEC; single synthetic subunits; 50 mM sodium phosphate, 150 mM NaCl, pH 7.4; AKTA Explorer 10; size by calibration with standard proteins (apparent molecular weight)"}}, "note": "“And” between values parts separate entries of the source, which are not always exact repeats. Identical values can stand only once."}
{"molecule": "Antigen B subunit 1 (AgB1), synthetic (natural protein)", "values": [{"measurement": "stoichiometry N", "setting": "[1]", "result": "2 and 3 and 4"}, {"measurement": "stoichiometry N", "setting": "[2]", "result": "3 and 4 and 5"}]}
{"molecule": "Antigen B subunit 2 (AgB2), synthetic (natural protein)", "values": [{"measurement": "stoichiometry N", "setting": "[3]", "result": 6.8, "unit": "units"}]}
{"molecule": "B1", "values": [{"measurement": "stoichiometry N", "setting": "[4]", "result": 6.6, "unit": "units"}]}
{"molecule": "B2", "values": [{"measurement": "stoichiometry N", "setting": "[4]", "result": 6}]}
